# T1: Biotin-FcγRIIB (human FcγRIIB, Sino Biological) (human, UniProt P31994 43-217, limits assumed, biotin-labeled)
# T1 construct: Used at 1 µg/ml with Streptavidin-APC for flow cytometry and sorting; also called CD32b
# T1 sequence (looked up): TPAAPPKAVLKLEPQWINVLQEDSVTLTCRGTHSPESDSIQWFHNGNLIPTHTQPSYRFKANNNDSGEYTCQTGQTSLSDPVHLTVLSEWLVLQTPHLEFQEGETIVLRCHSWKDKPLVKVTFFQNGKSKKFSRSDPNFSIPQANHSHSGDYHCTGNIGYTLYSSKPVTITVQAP
# Target: T1, Biotin-FcγRIIB (human FcγRIIB, Sino …)
# Assay: NGS after FACS sort of 3T3-displayed Library4 for biotin-FcγRIIB binding
Binder,Enrichment factor (percentage after sorting/percentage before sorting),Increased factor (enrichment factor/wild-type enrichment factor)
"human IgG2 anti-mouse CD40 surface displayed antibody, L328W (antibody, name in EU numbering, m1 with this Fc mutation (Eu numbering); Not the anti-human OX40 antibody Mut_1, which carries the same Fc mutation; copies: 2 + 2) light chain (with the P2A rest): DTVLTQSPALAVSPGERVTISCRASDSVSTLMHWYQQKPGQQPKLLIYLASHLESGVPARFSGSGSGTDFTLTIDPVEADDTATYYCQQSWNDPWTFGGGTKLELKRTVAAPSVFIFPPSDEQLKSGTASVVCLLNNFYPREAKVQWKVDNALQSGNSQESVTEQDSKDSTYSLSSTLTLSKADYEKHKVYACEVTHQGLSSPVTKSFNRGECGSGATNFSLLKQAGDVEENPG heavy chain: EVQLVESDGGLVQPGRSLKLPCAASGFTFSDYYMAWVRQAPTKGLEWVASISYDGSSTYYRDSVKGRFTISRDNAKSTLYLQMDSLRSEDTATYYCGRHSSYFDYWGQGVMVTVSSASTKGPSVFPLAPCSRSTSESTAALGCLVKDYFPEPVTVSWNSGALTSGVHTFPAVLQSSGLYSLSSVVTVPSSNFGTQTYTCNVDHKPSNTKVDKTVERKCCVECPPCPAPPVAGPSVFLFPPKPKDTLMISRTPEVTCVVVDVSHEDPEVQFNWYVDGVEVHNAKTKPREEQFNSTFRVVSVLTVVHQDWLNGKEYKCKVSNKGWPAPIEKTISKTKGQPREPQVYTLPPSREEMTKNQVSLTCLVKGFYPSDIAVEWESNGQPENNYKTTPPMLDSDGSFFLYSKLTVDKSRWQQGNVFSCSVMHEALHNHYTQKSLSLSPGKLEPPPSTVSNMATVAVLVVLGAAIVTGAVVAFVMKMRRRNTGGKGGDYALAPGSQTSDLSLPDCKVMVHDPHSLA",33.2,22.2
"human IgG2 anti-mouse CD40 surface displayed antibody, G327A/I332E (antibody, name in EU numbering, m1 with these Fc mutations (Eu numbering); copies: 2 + 2) light chain (with the P2A rest): DTVLTQSPALAVSPGERVTISCRASDSVSTLMHWYQQKPGQQPKLLIYLASHLESGVPARFSGSGSGTDFTLTIDPVEADDTATYYCQQSWNDPWTFGGGTKLELKRTVAAPSVFIFPPSDEQLKSGTASVVCLLNNFYPREAKVQWKVDNALQSGNSQESVTEQDSKDSTYSLSSTLTLSKADYEKHKVYACEVTHQGLSSPVTKSFNRGECGSGATNFSLLKQAGDVEENPG heavy chain: EVQLVESDGGLVQPGRSLKLPCAASGFTFSDYYMAWVRQAPTKGLEWVASISYDGSSTYYRDSVKGRFTISRDNAKSTLYLQMDSLRSEDTATYYCGRHSSYFDYWGQGVMVTVSSASTKGPSVFPLAPCSRSTSESTAALGCLVKDYFPEPVTVSWNSGALTSGVHTFPAVLQSSGLYSLSSVVTVPSSNFGTQTYTCNVDHKPSNTKVDKTVERKCCVECPPCPAPPVAGPSVFLFPPKPKDTLMISRTPEVTCVVVDVSHEDPEVQFNWYVDGVEVHNAKTKPREEQFNSTFRVVSVLTVVHQDWLNGKEYKCKVSNKALPAPEEKTISKTKGQPREPQVYTLPPSREEMTKNQVSLTCLVKGFYPSDIAVEWESNGQPENNYKTTPPMLDSDGSFFLYSKLTVDKSRWQQGNVFSCSVMHEALHNHYTQKSLSLSPGKLEPPPSTVSNMATVAVLVVLGAAIVTGAVVAFVMKMRRRNTGGKGGDYALAPGSQTSDLSLPDCKVMVHDPHSLA",126,84.1
"human IgG2 anti-mouse CD40 surface displayed antibody, L328F (antibody, name in EU numbering, m1 with this Fc mutation (Eu numbering); copies: 2 + 2) light chain (with the P2A rest): DTVLTQSPALAVSPGERVTISCRASDSVSTLMHWYQQKPGQQPKLLIYLASHLESGVPARFSGSGSGTDFTLTIDPVEADDTATYYCQQSWNDPWTFGGGTKLELKRTVAAPSVFIFPPSDEQLKSGTASVVCLLNNFYPREAKVQWKVDNALQSGNSQESVTEQDSKDSTYSLSSTLTLSKADYEKHKVYACEVTHQGLSSPVTKSFNRGECGSGATNFSLLKQAGDVEENPG heavy chain: EVQLVESDGGLVQPGRSLKLPCAASGFTFSDYYMAWVRQAPTKGLEWVASISYDGSSTYYRDSVKGRFTISRDNAKSTLYLQMDSLRSEDTATYYCGRHSSYFDYWGQGVMVTVSSASTKGPSVFPLAPCSRSTSESTAALGCLVKDYFPEPVTVSWNSGALTSGVHTFPAVLQSSGLYSLSSVVTVPSSNFGTQTYTCNVDHKPSNTKVDKTVERKCCVECPPCPAPPVAGPSVFLFPPKPKDTLMISRTPEVTCVVVDVSHEDPEVQFNWYVDGVEVHNAKTKPREEQFNSTFRVVSVLTVVHQDWLNGKEYKCKVSNKGFPAPIEKTISKTKGQPREPQVYTLPPSREEMTKNQVSLTCLVKGFYPSDIAVEWESNGQPENNYKTTPPMLDSDGSFFLYSKLTVDKSRWQQGNVFSCSVMHEALHNHYTQKSLSLSPGKLEPPPSTVSNMATVAVLVVLGAAIVTGAVVAFVMKMRRRNTGGKGGDYALAPGSQTSDLSLPDCKVMVHDPHSLA",563,377
"human IgG2 anti-mouse CD40 surface displayed antibody, L328E/I332T (antibody, name in EU numbering, m1 with these Fc mutations (Eu numbering); copies: 2 + 2) light chain (with the P2A rest): DTVLTQSPALAVSPGERVTISCRASDSVSTLMHWYQQKPGQQPKLLIYLASHLESGVPARFSGSGSGTDFTLTIDPVEADDTATYYCQQSWNDPWTFGGGTKLELKRTVAAPSVFIFPPSDEQLKSGTASVVCLLNNFYPREAKVQWKVDNALQSGNSQESVTEQDSKDSTYSLSSTLTLSKADYEKHKVYACEVTHQGLSSPVTKSFNRGECGSGATNFSLLKQAGDVEENPG heavy chain: EVQLVESDGGLVQPGRSLKLPCAASGFTFSDYYMAWVRQAPTKGLEWVASISYDGSSTYYRDSVKGRFTISRDNAKSTLYLQMDSLRSEDTATYYCGRHSSYFDYWGQGVMVTVSSASTKGPSVFPLAPCSRSTSESTAALGCLVKDYFPEPVTVSWNSGALTSGVHTFPAVLQSSGLYSLSSVVTVPSSNFGTQTYTCNVDHKPSNTKVDKTVERKCCVECPPCPAPPVAGPSVFLFPPKPKDTLMISRTPEVTCVVVDVSHEDPEVQFNWYVDGVEVHNAKTKPREEQFNSTFRVVSVLTVVHQDWLNGKEYKCKVSNKGEPAPTEKTISKTKGQPREPQVYTLPPSREEMTKNQVSLTCLVKGFYPSDIAVEWESNGQPENNYKTTPPMLDSDGSFFLYSKLTVDKSRWQQGNVFSCSVMHEALHNHYTQKSLSLSPGKLEPPPSTVSNMATVAVLVVLGAAIVTGAVVAFVMKMRRRNTGGKGGDYALAPGSQTSDLSLPDCKVMVHDPHSLA",55.1,36.9

# Other lines, results leading:
Enrichment factor (percentage after sorting/percentage before sorting),Increased factor (enrichment factor/wild-type enrichment factor),Binder
29.2,19.5,"human IgG2 anti-mouse CD40 surface displayed antibody, G327A/I332A (antibody, name in EU numbering, m1 with these Fc mutations (Eu numbering); copies: 2 + 2) light chain (with the P2A rest): DTVLTQSPALAVSPGERVTISCRASDSVSTLMHWYQQKPGQQPKLLIYLASHLESGVPARFSGSGSGTDFTLTIDPVEADDTATYYCQQSWNDPWTFGGGTKLELKRTVAAPSVFIFPPSDEQLKSGTASVVCLLNNFYPREAKVQWKVDNALQSGNSQESVTEQDSKDSTYSLSSTLTLSKADYEKHKVYACEVTHQGLSSPVTKSFNRGECGSGATNFSLLKQAGDVEENPG heavy chain: EVQLVESDGGLVQPGRSLKLPCAASGFTFSDYYMAWVRQAPTKGLEWVASISYDGSSTYYRDSVKGRFTISRDNAKSTLYLQMDSLRSEDTATYYCGRHSSYFDYWGQGVMVTVSSASTKGPSVFPLAPCSRSTSESTAALGCLVKDYFPEPVTVSWNSGALTSGVHTFPAVLQSSGLYSLSSVVTVPSSNFGTQTYTCNVDHKPSNTKVDKTVERKCCVECPPCPAPPVAGPSVFLFPPKPKDTLMISRTPEVTCVVVDVSHEDPEVQFNWYVDGVEVHNAKTKPREEQFNSTFRVVSVLTVVHQDWLNGKEYKCKVSNKALPAPAEKTISKTKGQPREPQVYTLPPSREEMTKNQVSLTCLVKGFYPSDIAVEWESNGQPENNYKTTPPMLDSDGSFFLYSKLTVDKSRWQQGNVFSCSVMHEALHNHYTQKSLSLSPGKLEPPPSTVSNMATVAVLVVLGAAIVTGAVVAFVMKMRRRNTGGKGGDYALAPGSQTSDLSLPDCKVMVHDPHSLA"
11.4,7.64,"human IgG2 anti-mouse CD40 surface displayed antibody, G327A/I332C (antibody, name in EU numbering, m1 with these Fc mutations (Eu numbering); copies: 2 + 2) light chain (with the P2A rest): DTVLTQSPALAVSPGERVTISCRASDSVSTLMHWYQQKPGQQPKLLIYLASHLESGVPARFSGSGSGTDFTLTIDPVEADDTATYYCQQSWNDPWTFGGGTKLELKRTVAAPSVFIFPPSDEQLKSGTASVVCLLNNFYPREAKVQWKVDNALQSGNSQESVTEQDSKDSTYSLSSTLTLSKADYEKHKVYACEVTHQGLSSPVTKSFNRGECGSGATNFSLLKQAGDVEENPG heavy chain: EVQLVESDGGLVQPGRSLKLPCAASGFTFSDYYMAWVRQAPTKGLEWVASISYDGSSTYYRDSVKGRFTISRDNAKSTLYLQMDSLRSEDTATYYCGRHSSYFDYWGQGVMVTVSSASTKGPSVFPLAPCSRSTSESTAALGCLVKDYFPEPVTVSWNSGALTSGVHTFPAVLQSSGLYSLSSVVTVPSSNFGTQTYTCNVDHKPSNTKVDKTVERKCCVECPPCPAPPVAGPSVFLFPPKPKDTLMISRTPEVTCVVVDVSHEDPEVQFNWYVDGVEVHNAKTKPREEQFNSTFRVVSVLTVVHQDWLNGKEYKCKVSNKALPAPCEKTISKTKGQPREPQVYTLPPSREEMTKNQVSLTCLVKGFYPSDIAVEWESNGQPENNYKTTPPMLDSDGSFFLYSKLTVDKSRWQQGNVFSCSVMHEALHNHYTQKSLSLSPGKLEPPPSTVSNMATVAVLVVLGAAIVTGAVVAFVMKMRRRNTGGKGGDYALAPGSQTSDLSLPDCKVMVHDPHSLA"
3.38,2.26,"human IgG2 anti-mouse CD40 surface displayed antibody, L328Y (antibody, name in EU numbering, m1 with this Fc mutation (Eu numbering); copies: 2 + 2) light chain (with the P2A rest): DTVLTQSPALAVSPGERVTISCRASDSVSTLMHWYQQKPGQQPKLLIYLASHLESGVPARFSGSGSGTDFTLTIDPVEADDTATYYCQQSWNDPWTFGGGTKLELKRTVAAPSVFIFPPSDEQLKSGTASVVCLLNNFYPREAKVQWKVDNALQSGNSQESVTEQDSKDSTYSLSSTLTLSKADYEKHKVYACEVTHQGLSSPVTKSFNRGECGSGATNFSLLKQAGDVEENPG heavy chain: EVQLVESDGGLVQPGRSLKLPCAASGFTFSDYYMAWVRQAPTKGLEWVASISYDGSSTYYRDSVKGRFTISRDNAKSTLYLQMDSLRSEDTATYYCGRHSSYFDYWGQGVMVTVSSASTKGPSVFPLAPCSRSTSESTAALGCLVKDYFPEPVTVSWNSGALTSGVHTFPAVLQSSGLYSLSSVVTVPSSNFGTQTYTCNVDHKPSNTKVDKTVERKCCVECPPCPAPPVAGPSVFLFPPKPKDTLMISRTPEVTCVVVDVSHEDPEVQFNWYVDGVEVHNAKTKPREEQFNSTFRVVSVLTVVHQDWLNGKEYKCKVSNKGYPAPIEKTISKTKGQPREPQVYTLPPSREEMTKNQVSLTCLVKGFYPSDIAVEWESNGQPENNYKTTPPMLDSDGSFFLYSKLTVDKSRWQQGNVFSCSVMHEALHNHYTQKSLSLSPGKLEPPPSTVSNMATVAVLVVLGAAIVTGAVVAFVMKMRRRNTGGKGGDYALAPGSQTSDLSLPDCKVMVHDPHSLA"
